The data set addresses TetR(B) (UniProt P04483 1-207). Kind of data set: cytometric bead binding assay.

The values that follow come from article PMC3351163.

Chain of TetR(B) (P04483 whole entry): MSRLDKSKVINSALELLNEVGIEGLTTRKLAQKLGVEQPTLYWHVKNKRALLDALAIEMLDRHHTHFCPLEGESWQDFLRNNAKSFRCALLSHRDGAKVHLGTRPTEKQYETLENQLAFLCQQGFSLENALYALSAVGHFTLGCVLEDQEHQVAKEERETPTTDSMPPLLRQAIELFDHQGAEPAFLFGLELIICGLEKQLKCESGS

B1: 5-1.2m2 (structured_RNA)
RNA: GGAUCCAGGCAGUGUAAGGUCGAUACGGACGGAAUGUGAUGGCCUGGAUCCAAA
For B1, the binding result was “no binding”.
